From article PMC3792889

Molecular target: Growth factor receptor protein binding protein 2 (Grb2), endogenous (mouse (endogenous in STHdhQ7/7, STHdhQ111/111 and Neuro2A cells)) (UniProt Q60631)
Experiment: co-IP; extracts of Neuro2A cells transfected with 23Q or 145Q Httex1 GFP; precipitated with anti-Grb2 antibody and Protein A/G beads; blot with anti-GFP; densitometry, n=3

Sequence of UniProt Q60631 (Q60631 whole entry): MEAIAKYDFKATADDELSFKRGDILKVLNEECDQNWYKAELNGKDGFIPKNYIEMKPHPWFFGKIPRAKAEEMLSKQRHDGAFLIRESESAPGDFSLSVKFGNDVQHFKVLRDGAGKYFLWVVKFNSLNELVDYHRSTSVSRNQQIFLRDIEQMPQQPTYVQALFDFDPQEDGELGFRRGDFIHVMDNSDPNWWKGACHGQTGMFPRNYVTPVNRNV

Substance: 145Q Htt exon1 GFP (domain or fragment)
- fold precipitation against 23Q Httex1 GFP: 2 fold
